Non-standard residues stand in square brackets, D forms with d. HTI‑286 = hemiasterlin derivative, cytotoxic agent; Cha = N[C@@H](CC1CCCCC1)C(=O)O; Nle = CCCC[C@H](N)C(=O)O
How the values were obtained:
[1] = biological target: T1, gastrin receptor; assay: cell-based or functional assay
T1 sequence (P32239 whole entry, species assumed, looked up): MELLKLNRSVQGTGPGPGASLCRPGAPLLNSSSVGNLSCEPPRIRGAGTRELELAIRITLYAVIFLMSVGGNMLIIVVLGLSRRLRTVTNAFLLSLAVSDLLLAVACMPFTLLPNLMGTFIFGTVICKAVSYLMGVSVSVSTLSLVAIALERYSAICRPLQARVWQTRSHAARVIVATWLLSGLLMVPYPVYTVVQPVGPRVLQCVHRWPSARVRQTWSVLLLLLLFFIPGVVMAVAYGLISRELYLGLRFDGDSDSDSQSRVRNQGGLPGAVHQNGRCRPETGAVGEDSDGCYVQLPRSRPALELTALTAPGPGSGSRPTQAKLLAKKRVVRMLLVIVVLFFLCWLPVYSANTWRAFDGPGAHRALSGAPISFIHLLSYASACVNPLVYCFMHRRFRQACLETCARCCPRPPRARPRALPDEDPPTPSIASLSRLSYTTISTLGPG

[2] = biological target: low-affinity gastrin receptor of nontransfected cells; assay: cell-based or functional assay

{HTI‑286}-[Cha]LALAEEEAYGW[Nle]DF-NH2 [HTI-286-Cha-Leu-Ala-Leu-Ala-EEEAYGW-Nle-DF-NH2]
IC50, growth inhibition of gastrin receptor-expressing 3T3 cells (MTT or sulforhodamine assay) [1]: 10 nM | IC50, growth inhibition of nontransfected cells (MTT or sulforhodamine assay) [2]: 300 nM

From patent publication US20050171014A1 (GOVERNMENT OF THE UNITED STATES OF AMERICA REPRESENTED BY …, published 2005)
